# Assay: soluble on expression in E. coli; label from the status in PepcDB or PDB records
row,Sequence,soluble on expression in E. coli
1,MPNDLPLLPPKNQHKHLDKTMISLPSDFRHLAHVGPMGSSEIENLRTSDNVIDTVNESSYYIRPSSSNSTLRSQRKEKDRVGLDDAFPSASKSEEEVEVVRGYENQPTSHQYINIAPPRPSKKNYKAPAPPTPPPQNSKPNLIFNAQDDEEETSEISEQPVVFRSISHTSNISTHIAPPPKIQTADRIVAPKPNSLVIERPGDLGGAFSFGLDDCIPIVKSTPPLNTLSPLHRPLAIPKNQEETPILSPASPPDDSNYMSTIRSTSVQGRKILDELDDWLDDLDDLDRDQLSTISTDESGYPTLALEKDRAFMKHLVEKYELGVAPETIRLRKKKGPAPKAPSLPPDLSSPTFQAPGFIPAFSARPVSMPPNRPPPSYEAPSFDAPEAPGTVLINGRALTKQNALDLRSSDESGVPPAIARFLYDKRIKSATMPMSIGRMTSSSGNTDVSTTSSRSNADTVSSILSTVGEDDDVEVLKRDREVEEEFVPPVPKPRSRKTVSTEPLKEEEEENVEEEIKGENVIGEEFQVVGDTKINDEQEDRVEATKDKINDAFIMLPPPSAAAMIPSDSESEDDDNFIITRF,not soluble
2,GPGSMPSPLVLTRAAPARGLNVKMFDRKVKGLQRSFVSSPACDLHKLCAQQMLDRRTFVKRDTPVVLEVGAHTGWYLRHMIERKEFHGLKQYIQTDISEDRLNRNYEEIKNIIPPEVEFVQICCDEEQPSPFGIPDKSVDMVVSCLSMHWVNDLETSMVNVRKVLKRDGFFLNAMFGGNTLYELRGCFSMAQTETLGGVSPHVSPMIDGAGLSTLVLQAGFNIPTIDLDRHLLLYETPFHLMEHLAVMGESACHYMRQPMKRDVLLCACAIYDTMYKQNGLFPATFEVFHTIAWSPSPTQAKPLARGSGQIPLSSWNSKSRKQLQSVLDEYALNPNDEVLQNKAEDIFKKLREESAELMAKKGLDSRGFERDRDEEARRLDEKPVPPFQ,not soluble
3,SLSSTQSVNSVLAPGNLRKVHHIALNVQDMQASRYFYGTILGLHELTDDEVPATLTELVASGKVANFITPDGTILDLFGEPELSPPDPNPEKTFTRAYHLAFDIDPQLFDRAVTVIGENKIAIAHGPVTRPTGRGVYFYDPDGFMIEIRCDPEAEG,soluble
4,MGSDKIHHHHHHMFIKNAWYVACRPEEIQDKPLGRTICGEKIVFYRGKENQVAAVEDFCPHRGAPLSLGYVEDGNLVCGYHGLVMGCDGKTVSMPAQRVNGFPCNKAYAVVEKFGFIWVWPGEKALADEAKLPTLEWADHPEWSYGGGLFHIQCDYRLMIDNLMDLTHETYVHSSSIGQKEIDEALPVTKVEGDHVITERYMENVIAPPFWQMALRGNHLADDVPVDRWQRCHFFAPSNVHIEVGVAHAGHGGYHAPKDKKVSSIVVDFITPETETSHWYFWGMARNFQPDNAELTDQIREGQGKIFTEDLEMLEQQQQNILNNPHRKLLMLNIDAGGVQSRKVIDRLLAEENKTPPETSTQKFPNIRII,not soluble
5,STPETLPGHTKAKQPYREDTEWLKGQQIGLGAFSSCYQAQDVGTGTLMAVKQVTYVRNTSSEQEEVVEALREEIRMMSHLNHPNIIRMLGATCEKSNYNLFIEWMAGGSVAHLLSKYGAFKESVVINYTEQLLRGLSYLHENQIIHRDVKGANLLIDSTGQRLRIADFGAAARLASKGTGAGEFQGQLLGTIAFMAPEVLRGQQYGRSCDVWSVGCAIIEMACAKPPWNAEKHSNHLALIFKIASATTAPSIPSHLSPGLRDVALRCLELQPQDRPPSRELLKHPVFRTTW,soluble
6,MSLDRVEVLGVEFVEFTADQTEAEALGSLLGAMGFRAVASHREKAVTLWRQGCDHRGINVVINTEQKGFAHSSYLVHGASAYAIGLKVPDASAAVERARALGAEIFLPESGEGEGAMAAIRGMGGGLIYFVDEIDDVWSREFVAPGDDRQPAATLVAIDHVAQSMKEEQLPSWLLFYTSILDADKLAQVDIVDPAGLVRSQVVENASGTLRLTLNGADNHREGHHHHHH,not soluble
7,WYCLISHGTRPKYWFDIEVYRQGYYPRCGQLRSWIARKDGIWFTRKYHSPPGHVLDWKIQ,not soluble
8,MFIKAERLLIRKFEFKDWEAVHEYTSDSDVMKYIPEGVFTEEDTRNFVNKNMGENAKNFPVILIGENILVGHIVFHKYFGEHTYEIGWVFNPKYFNKGYASEAAQATLKYGFKEMKLHRIIATCQPENTPSYRVMEKIGMRREGYFKKCIPHGNEWWDEYYYAILEEE,soluble
9,MGSDKIHHHHHHMIFKKMINEFKMEIKNNKSKINPIDVYRYSIFFRNYIESTAEDALKNGINLSLLEKSCLKESSKSLLGLKVQLKEALLEAMISYRFNGAGYILVKPKSEDEDLSKKVNSELPTGFKYLDFQKIINKRDSSYVEYLSNSKDPDDFERARVVKIDKSRVIIYENYDYVLGEQEPAYTQSLLLNICLLEQIYLEIEKRIRNYNFLFYKDEHLVGLVESLEIAKEEINVLANSKGKIFSTFFKAQEPNKSFQALSSVSDELSRELSKIKNTLNNDGIFYTASENARLEVIKYDLEFLKDAFELVKAKIGADTKEPLTRSFNEQVKGLGSSGKGDKSNYYDYLKGVQESVANACNLKLNKYYRLNMKFNELEALSYEQRLQKDNLLLDVYFKYLELIKNENLSDKAKENLKEQLSLVI,not soluble
10,MSTAINSVEMSLSADEIRERVRAAGVVGAGGAGFPAHVKLQAQVEIFLVNAAECEPMLKVDQQLMWQQAARLVRGVQYAMTATGAREGVIALKEKYRRAIDALTPLLPDGIRLHILPDVYPAGDEVLTIWMATGRRVAPAALPASVGVVVNNVQTVLNIARAVEQRFPVTRRTLTVNGAVARPLTVTVPIGMSLREVLALAGGATVDDPGFINGGPMMGGLITSLDNPVTKTTGGLLVLPKSHPLIQRRMQDERTVLSVARTVCEQCRLCTDLCPRHLIGHELSPHLLVRAVNFHQAATPQLLLSALTCSECNVCESVACPVGISPMRINRMLKRELRAQNQRYEGPLNPADEMAKYRLVPVKRLIAKLGLSPWYQEAPLVEEEPSVEKVTLQLRQHIGASAVANVAVGERVTRGQCVADVPPGALGAPIHASIDGVVSAISEQAITVVRGLEHHHHHH,soluble
11,SKLVYRNLARNGPGSVKLVPEEEDDLWHAYNLIVPGDTLQSVTVRKVLREMASGGRDAERVRLKLEIVVESVDYDKEGSVLRVRGKNITENDHVKIGQFHTVELELKRQFTLTKELWDWLALDTIQQACDPTASADLAVILMQEGLAHLFLIGRSITVTRARIETSIPRKHGPAIAGYESALKKFFEHVLQVNEKCFLKEMIILMKPIWTDALLNLPTGFPEAY,soluble
12,MGMSATMGDSASIPGVFFADFGPAPPEITPEGYHEVELNKTKWVLPQWYNSLKPLGEGAYGVVCTAEYEPTGDRVAIKKFFRPFQSTIHAKRTYRELKLLRTLQHDNVLEMIDVFTPDPDASSLNNVYFVSVLMGSDLQNIMKIQRLTDEQIQLLIYQVLRGLKYIHSAGIIHRDLKPSNIAVNERCEVKVFLSFSQLSFLILSFFKILDFGLARAQDAEMTGYVATRWYRAPEIMLNWMHYTQTVDVWSVGCILAELVSGRPLFPGDDHIDQLTKIMSVVGTPKEEFWSKIQSEEARNYIKNRSPIIRQDFVTLFPMASPYALELLEMMLILDPDRRISVSSALRHDYLREYSVPNDEPVAMDTVINSIVTIDPAEERATTLSDWRELIWNEIRLFQNSARRLSFVSCTDTEEEPMKI,not soluble
13,DYESPIVNVVEACAPAVVKIDVVKTVKTSFFDPYFEQFFKKWFGELPPGFERQVASLGSGFIFDPEGYILTNYHVVGGADNITVTMLDGSKYDAEYIGGDEELDIAVIKIKASDKKFPYLEFGDSDKVKIGEWAIAIGNPLGFQHTVTVGVVSATNRRIPKPDGSGYYVGLIQTDAAINPGNSGGPLLNIHGEVIGINTAIVNPQEAVNLGFAIPINTVKKFLDTILTQKKVEKAYLGV,soluble
14,MDISIEFGLYPTESDLTELQQYFPDTNLKKLYEVEAYHKKLETILDSEFSTERESLIAEIDELESQLTTLNQELQELGNIPNLSSEYLENYSKLTATINALKEQNEAYLKESGLSKEKSETDADLKRSTEDILLDLEVKINSKMREVNNILYPDIRKAPQINLNAHNSYSFYTPDDDGTGTKFKGMIVFDLVMLYLTNLPALAHDSLLLSNVSYQATEALLKLYDQSRSLNKQVFLVFDKASSYSPDANQLLSENTVLRLSSNGNELYGISWNKGENSDEI,not soluble
15,MIRGWLAEGERMKETSYYSYVVGELPKGCQYCVRGEKLVLFVTGVCPRNCFYCPLSPWRRKDVAYANERPIRKIEDIIEEAKIQEARGAGVTGGDPLARLNRTVEYIRTLKEEFGKKFHIHLYTTGILADKRALSMLYDAGLDEIRFHPDLFEPSSKFLNREIENLKNAFDFDWDVGGEVPAVPGFGDRIKWFAEILDKFGGKFLNINELEYSETNLSNILNRGFKLAGENSFAIKGSLELGLEILEWGEKNTSLYYHLCTAKLKDAVQLRNRLRRMAKNVAKPYMEITEDGTLRFGIAEYEDLEELYKFLVEEAEVPKEWLYINWEKKRIEMPVEVAEELAEAIEGDVKFYIVEEYPTWDRIEVERIPLN,not soluble
16,HFVIRSPEDGANLVMEDMRFLTQEHFVCLYLNTKNQVIHKRTVFIGSLNSSIVHPREVFKEAFKRSAASFICVHNHPSGDPTPSREDIEVTRRLFECGNLIGIELLDHLVIGDKKFVSLKEKGYL,not soluble
17,MEFYPIHILLSKLEEEIAFQQKMATTYLVSPPKYSPEVIGTVSETLRRISADLKLVSLILGELEEVQERDIKEEALILSSESLSLISLLLPAIEKYAPFFLESMKVERKPILEKLEDVMAEIENAIEKLELSSSREIIRSLEELAQSLEISLKMGERILERES,not soluble
18,MPSKQDVLLLDYWDQWAEAYRINGKSINTVYRYKLFRKHLKSRFDGRKLNSIRPIEWQKFINDFAAGKDRKEKTTRKRPRERSKDIVTKMNSYVRGMVKAAINERILFSDFTFGTKTSGVRSSGKVKVLEHHHHHH,soluble
19,MAASRDIFAPDFRRRPYWWEGYEPPECGEDTLPASADVAIVGGGYTGVCCALALREAGIEAVVLEAGRPGEGASTRSGGQVSGGVNVQKKALAAVGESAGQRAERLAARLRDAAASMAYVESLIERYAIECGWHRTGRLTTMWVPAHYQSWQARLDQLNACTGSQARMIPREELAAEIGSSVYHGAALIEHAGHLQPAQLYGGMLRAARDAGARVLGRTPVERIERRAGGYDVHTARGTVRAGQVVIATNGYTGANLGGLKRRIVPVCTHMITTEALPPDLAASLLPTNRAVSESRRVVNHYRLSPDGRRLLFGGRARFVPTDEATTARLLYRAMLKRFPQLAGTRITHSWGGNVAMTLDSMPHIGGADGLHYALGCNGSGVAMMSYLGHCVGRKIATQSGEPINAFDMGEIPGHPFYFGNPWFLFAIGSWYQARDAYDHWRARLEHHHHHH,not soluble
20,MQIYTADGKLIGEVGEQRRIPVKLADVPQRLIDAFLATEDSRFYDHHGLDPIGIARALFVAVSNGGASQGASTITQQLARNFFLTSEKTIIRKAREAVLAVEIENTLNKQEILELYLNKIFLGYRSYGVAAAAQTYFGKSLNELTLSEMAIIAGLPKAPSTMNPLYSL,not soluble
21,GPGSMRLALVGKRTHSLRDNGTPRMHAGDVFICISGSGCIGSIMCTYAQAKKASTGIVMIAGGVGDVPPKDSACATTTLLRSRDGLPWHLHGGGALGPVDGQPVRVRLVFAALFGRDALGGDAAGA,soluble
22,MSLEYNLTTTEIELVNVTASWDEGIGELFEKIKQENKANGQPNGDAGLFFTNLYVTPVLKNISLYLEKGQMLAVAGSTGSGKSSLLMMILGELVPSEGKIRHSGRISFSPQTSWIMPGTIRDNILFGLTYDEFRYTSVIKACQLEEDLALLPEKDKTPLMEGGVTLSGGQRARIGLARAVYKDADLYLLDSPFTHLDIVTEKEIFERCLCKLLSSKTRIVVTSKLEHLKRADKILLLHNGVCYFYGSFSELQAKRPDFSSLLLGLEAYDNIKAERRSSILTETLRRVSIDESTVFRGEGHHHHHH,soluble

# Source: the DeepSol protein solubility set
